Results from the domain aggregation screens of Martell et al. (2025).

Assay: soluble fraction after stress (log2 fold change); higher = more stays soluble; pooled small domains, quantitative proteomics
Conditions: stress: 75 degC
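Note: 20 min heating vs room temperature control held 20 min.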

Sequence	soluble fraction (log2)
HMEPELSVDMKPLDGLLLAIKKELQAAQMYTRLARASADAEQKMVFEQLANMEKGHKARLEDIYT	-0.079
HMEPESTMIEISETLTNERLDRYLATKLPNVSRGGIQRLLREGNILVNGKKAKPTQHPVAGQKIEITWPNP	-0.0291
HMEPEYIGELEKRIKKLKTHTYSSIDRLMKSISKKYKITTQVLHDDFKNKHNEIPDEWVKQF	-0.126
HMEPKIKQIVPNVVNYPVEDAKNVLVNSGLIVQIRGQGNIVYDQVPKGGAEVTRGTTVILDLNPPPGA	-0.0576
HMEPKQIEVPNLVGISSAAARQTLSALGLHAVVKDSIWSETERIDTVLEQNPAGGALIKPEGTVYLRVSR	-0.0959
HMEPLIRTLEEQIAEKIKNYRKGTRVYDAEHVDRWISQLPEEERMVVLTETNRLLEQNYVDQAKLME	-0.0452
HMEPMLEIFDAKIDLADVLAVESGLVRLRGGAEVTSPRVDVDAGARLELDSGARLNVERLSY	0.155
HMEPMTDQQILEGFAEFKRQNPDLMNRPATQAIVNLTLPGGTPISFRSGAGAAALNQYLESIGMRAGP	0.0601
HMEPPAPAPDIPYPSRVTVRREVDGWPHYYGTWTRTPPVLGYEGIWLVGVSLDGKVQFVPVDDVTIA	-1.17
HMEPREEFTFADLRANGLNGTAAAAGRRAALGAALGIGYGNAKQFLRRLNHYGVTRSEWEAALADLDE	-0.752
HMEPSERYKALQSLLPDYAKRLKKKGVTRHQLFLEYRLTHPDGYARSRFGTYFQAYLALSHP	-2.32
HMEPTLVVARDKDAKSPLVAKLMKELGVDAAPRVIVDDSVIGGAKLSHNHTEIDATYKTALINLYQAIT	0.19
HMEPVFSDPARQTLYQEVMELPAKYRVPLYLYYYEGYKVDEVGELLGLNASTVQTRLARARAKLKIQL	-0.489
HMEQETVTVPDLVGKDVVAAQAELHEMGLSGKPDGTGTTVVSQFPVAGARVLKHTNVILYTED	0.296
HMEQFRENIVRIYMEIDDYENGAKFLEMGNNRDASFYELAGDFYKYFGENELANENYDLAISA	-0.629
HMEQIPEEYKKIYSLITDIPININDIAKKSLLELREVSSKLTMLELDGKVVKLPGNMYIRGDL	-0.195
HMEQKELAPLVPQEDGSVKLTNLAGYSMREVAAALEGGNLSLIPIGSGTSWKQDPAPGTVLQPGNTVTVYF	-0.297
HMEQPLSLKLANNAFSRFWGNANPAEKDTQPNNSDIAKWVIEQSGGKITQTMADKIAQIIRPEWAA	0.372
HMEQSGDELKTWVDQAIAAYPEKVKEYQQGKKGLLALFIGEVMKRSKGTADPKKVNQLVTEALS	-0.164
HMEQTMNDMLKLVDLLPQNQQDIVRMRFYENMSFKEIAESNQISINTALGRMRYAILNLRKYAAERNL	-2.59

Sequence	soluble fraction (log2)
HMEQVLDEEIIKSAVQKVIKDNPSAVSDYKAGKKTAFQFLIGKAMAELQGKGHPGKISELLEKE	0.474
HMEQVQQIPIEELFPFKEHPFKVLDDEAMQRTVESVAQYGVLAPLIARPRPEGGYEIISGHRRQHAAELYR	-0.0469
HMEQWVSIEVEPGIRLDVALTEATQKSRSFIQNLIAEQRVLVNGQPKKANYKVRPGDHVELNYPEPT	-0.29
HMEREKTYLMPDLIGRKAERVVPRLQASGFKVEDIRHVYYPGLEKGVIVRQSPPGGYPIQKRNLINLEVS	-0.581
HMERLKKYLDDVRTFLPGTNPKKVDEILREIESHVLERAEREHGEVNDNAVAMSIKEYGSPEEVAARYYEG	0.809
HMERLSNQVYAILKEMIADYRFNPGARINVEQIAKEVGASRTPVWEAVHRLVQEGLLENIPNRGVFML	-1.45
HMERNAEDFAAKYQEIYQDMFRFALYTLKNRQEAEDVVSETVLDAWKGIEGLKNESAFSAWMFRILVNK	0.126
HMESADEESNALMYDGLLAMRGKRYEVALEFFDALVKHDPDFAEGWNKRATVLYLLGRYERSIADIKQVLA	0.239
HMESAEQTGEELAARVNVLQTVSQALARELGREAAVEELADKMKMTVDEVKDIMKMAMDAMSM	0.294
HMESAESRVDLIGMIGEAITDLRPAGTAQFGEERIDVVSESEWITEGSTVKVVSAEGYRHVVRVME	-0.358
HMESENANVNRAMLTGIASMHAGQLETALNKFNEVIQLAPDFAEGWNKRATIFYLMKKFDRSVNDIAQTLK	0.0648
HMESFGVAIKRLREAQGWTRADFLRQLGKTGYYMHATTLKRIEEGEQIAKVHEAVIISRLFGVTVEEMG	-3.1
HMESGFEAVREVARHGSFANAAKALGVSGPAVSRQVKSLEERLGLVFFHRTTRMVTLTEAGQQLVDTLD	0.0837
HMESGNLIFTNAPIADVVNAIETRYGKKLQASNQTSDLQFTGIFKNTDEFSTVVKTIEIALGLQFEV	-1.67
HMESIEAGTFELDNKTSIDISEDEANLLNKMFEELTETNSKDMYGVMVADEAGFNEILEFAKENL	0.00321
HMESNWLTYAKRIQSIADTGMTFAVDDFDKERYQELADISSKMLADLSNIPIGRIENLLGPLGQ	-1.11
HMESPVNTLPEDQRAWYKALPPELSTKTAVEAGAGVGVSERTVKRLLSNQTFFINLQRGNYRKRH	-0.119
HMESRMTYLQKTKLATENLDAKLIDHQQWVAEVLGEDYRGVYSDEYLRRAAKVFAIFVNNLDD	-2.53
HMESRRVTLLLPYDKAGIADTLRREAAVLSLEYGEDGVTVEAVVKPELWGLVREYVQNDNPK	-0.135
